In patent US20140329706A1, “AFFINITY TAGS, AND RELATED AFFINITY LIGANDS, ENGINEERED PROTEINS, MODIFIED SUPPORTS, COMPOSITIONS, METHODS AND SYSTEMS” (CALIFORNIA INSTITUTE OF TECHNOLOGY, priority 2013, published 2014):

Target: T1, PSD-95 PDZ1-PDZ2 (Mus musculus, UniProt Q62108)
T1 construct: HaloTag-PDZ1+PDZ2 fusion protein (residues 61 to 249 of Mus musculus PSD-95); HaloTag (N); made in house
Assay: Binding of cypin to PSD-95 PDZ1-PDZ2 affinity resin
Description: An affinity column was used substituted with a HaloTag-PDZ1+PDZ2 fusion protein (residues 61 to 249 of Mus musculus PSD-95) to purify heterologously expressed human cypin. Cypin was expressed in E. coli either as the free protein or fused to an N-terminal MBP, and purified from the bacterial supernate on the PDZ1-PDZ2 Domain-Affinity Resin. Both cypin and MBP-cypin were purified to >99% homogeneity.
For the experiment, full length cypin (guanine deaminase, Homo sapiens: AA 1-454) or MBP-cypin fusion proteins were expressed in BL21(DE3) E. coli cells. Single colonies of BL21(DE3) cells harboring pJExpress414 plasmids containing cypin or MBP-cypin genes were grown overnight at 37° C. in 5 ml of lysogeny broth (LB) (Cat. No. L9110, Teknova, Hollister, Calif.) supplemented with 100 ug/ml carbenicillin. […] Bacterial cell pellets (0.4-2.5 grams) containing cypin or MBP-cypin were resuspended in 5 ml/g cell paste of BugBuster Lysis Buffer [1× BugBuster (Cat. No. 70921, EMD Millipore, Billerica Mass.), 50 mM HEPES, 150 mM NaCl, 5 mM TCEP, 0.5 mM EDTA, 10 mM MgCl2, 2 mM PMSF, Complete Protease Inhibitor supplemented with 25 U/ml Benzonase and 10 U/ml ReadyLyse]. […] Eluted protein was analyzed on 4-12% bis-tris SDS-PAGE gels and proteins were detected by Gel Code Blue staining.

T1 sequence (Q62108 61-249): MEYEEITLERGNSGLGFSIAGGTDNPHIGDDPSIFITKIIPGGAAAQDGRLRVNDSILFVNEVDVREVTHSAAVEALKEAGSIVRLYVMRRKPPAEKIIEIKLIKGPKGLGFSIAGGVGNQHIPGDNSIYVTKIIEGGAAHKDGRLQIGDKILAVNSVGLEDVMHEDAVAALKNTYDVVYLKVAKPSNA

B1: untagged cypin: full length cypin (guanine deaminase, Homo sapiens: AA 1-454) (protein)
chain: MCAAQMPPLAHIFRGTFVHSTWTCPMEVLRDHLLGVSDSGKIVFLEEASQQEKLAKEWCFKPCEIRELSHHEFFMPGLVDTHIHASQYSFAGSSIDLPLLEWLTKYTFPAEHRFQNIDFAEEVYTRVVRRTLKNGTTTACYFATIHTDSSLLLADITDKFGQRAFVGKVCMDLNDTFPEYKETTEESIKETERFVSEMLQKNYSRVKPIVTPRFSLSCSETLMGELGNIAKTRDLHIQSHISENRDEVEAVKNLYPSYKNYTSVYDKNNLLTNKTVMAHGCYLSAEELNVFHERGASIAHCPNSNLSLSSGFLNVLEVLKHEVKIGLGTDVAGGYSYSMLDAIRRAVMVSNILLINKVNEKSLTLKEVFRLATLGGSQALGLDGEIGNFEVGKEFDAILINPKASDSPIDLFYGDFFGDISEAVIQKFLYLGDDRNIEEVYVGGKQVVPFSSSV
binding to solid support PDZ1 and PDZ2 domains: able to bind with strong affinity

B2: MBP-cypin: cypin fused to an N-terminal maltose binding protein (protein)
chain: MCAAQMPPLAHIFRGTFVHSTWTCPMEVLRDHLLGVSDSGKIVFLEEASQQEKLAKEWCFKPCEIRELSHHEFFMPGLVDTHIHASQYSFAGSSIDLPLLEWLTKYTFPAEHRFQNIDFAEEVYTRVVRRTLKNGTTTACYFATIHTDSSLLLADITDKFGQRAFVGKVCMDLNDTFPEYKETTEESIKETERFVSEMLQKNYSRVKPIVTPRFSLSCSETLMGELGNIAKTRDLHIQSHISENRDEVEAVKNLYPSYKNYTSVYDKNNLLTNKTVMAHGCYLSAEELNVFHERGASIAHCPNSNLSLSSGFLNVLEVLKHEVKIGLGTDVAGGYSYSMLDAIRRAVMVSNILLINKVNEKSLTLKEVFRLATLGGSQALGLDGEIGNFEVGKEFDAILINPKASDSPIDLFYGDFFGDISEAVIQKFLYLGDDRNIEEVYVGGKQVVPFSSSV
modifications: left off: large carriers
binding to solid support PDZ1 and PDZ2 domains: able to bind with strong affinity
